Test results: patent publication US20130129739A1 (Bayer, published 2013)
Residue numbers refer to the chain shown, from its start. Values joined by “and” are separate entries in the source; they are usually repeats but may differ in a detail not shown here. Equal values may be shown once. Each block holds one binder with its values, some of them ahead of it.

What was measured:
[1] = biological target: T1, human prolactin receptor (PRLR) on cells (human, UniProt P16471 25-622); experiment: cell-based or functional assay
T1 sequence (looked up): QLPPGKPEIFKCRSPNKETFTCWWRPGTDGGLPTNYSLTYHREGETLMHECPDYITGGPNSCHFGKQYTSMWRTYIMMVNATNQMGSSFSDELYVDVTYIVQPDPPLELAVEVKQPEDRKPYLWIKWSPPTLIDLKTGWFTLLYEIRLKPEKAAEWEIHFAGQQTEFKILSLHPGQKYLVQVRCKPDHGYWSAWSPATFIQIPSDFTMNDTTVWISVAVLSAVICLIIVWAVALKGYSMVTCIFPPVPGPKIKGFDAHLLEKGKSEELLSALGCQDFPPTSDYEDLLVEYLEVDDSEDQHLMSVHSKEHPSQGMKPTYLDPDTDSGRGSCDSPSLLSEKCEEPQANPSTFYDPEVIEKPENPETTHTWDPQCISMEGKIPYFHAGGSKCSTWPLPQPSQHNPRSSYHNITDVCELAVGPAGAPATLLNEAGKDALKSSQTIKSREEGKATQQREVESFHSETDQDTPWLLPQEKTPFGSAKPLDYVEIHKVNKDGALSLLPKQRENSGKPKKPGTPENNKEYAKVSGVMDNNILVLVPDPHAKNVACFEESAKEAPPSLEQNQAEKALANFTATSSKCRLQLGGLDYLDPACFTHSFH

[2] = biological target: T2, extracellular domain of human PRLR (monomeric, soluble) (human, UniProt P16471 25-234); experiment: SPR (Biacore), IgG1 directly immobilized, monomeric human PRLR ECD from HEK293 as analyte
T2 construct: also called ECD-PRLR; ECD of PRLR
T2 sequence: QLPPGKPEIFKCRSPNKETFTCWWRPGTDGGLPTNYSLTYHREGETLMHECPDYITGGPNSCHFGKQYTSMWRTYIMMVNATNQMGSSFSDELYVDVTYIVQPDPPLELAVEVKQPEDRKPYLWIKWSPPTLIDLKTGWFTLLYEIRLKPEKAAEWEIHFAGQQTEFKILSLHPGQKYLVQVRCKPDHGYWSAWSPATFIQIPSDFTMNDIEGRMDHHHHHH

[3] = biological target: T1, human prolactin receptor (PRLR) on cells; experiment: cell-based or functional assay; remark: listed apart in the source
[4] = biological target: T3, rat prolactin receptor (PRLR) on Nb2 lymphoma cells (rat, UniProt P05710 20-610); experiment: FACS on rat lymphoma cell line Nb2, IgG1
T3 construct: whole, on cells; also called rat PRLR
T3 sequence (looked up): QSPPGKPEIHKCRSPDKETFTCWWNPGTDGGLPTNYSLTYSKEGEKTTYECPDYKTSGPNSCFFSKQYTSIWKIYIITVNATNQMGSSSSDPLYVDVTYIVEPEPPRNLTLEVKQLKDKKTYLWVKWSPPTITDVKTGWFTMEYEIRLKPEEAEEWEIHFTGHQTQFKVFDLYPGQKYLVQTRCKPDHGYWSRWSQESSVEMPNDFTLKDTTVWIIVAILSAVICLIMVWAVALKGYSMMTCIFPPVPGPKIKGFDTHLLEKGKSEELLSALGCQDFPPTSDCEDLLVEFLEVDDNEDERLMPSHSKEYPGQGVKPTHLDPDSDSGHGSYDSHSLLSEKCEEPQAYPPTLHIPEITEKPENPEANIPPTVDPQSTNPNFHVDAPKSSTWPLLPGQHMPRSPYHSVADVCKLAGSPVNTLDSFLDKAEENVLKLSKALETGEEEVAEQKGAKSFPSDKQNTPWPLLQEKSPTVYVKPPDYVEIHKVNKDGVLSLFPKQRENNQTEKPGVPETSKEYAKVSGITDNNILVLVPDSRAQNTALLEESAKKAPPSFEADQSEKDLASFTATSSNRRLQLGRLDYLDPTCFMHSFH

[5] = biological target: T1, human prolactin receptor (PRLR) on cells; experiment: FACS on human breast cancer cell line T47D, IgG1

IC50, inhibition of prolactin-activated Ba/F cell proliferation (human PRLR) [1]: 4.8 nM and 0.72 µg/ml
Kd [2]: 1.8 nM
koff [2]: 0.0002 s⁻¹
B1: 002-H08 (antibody, V domains shown)
VH: QVELLESGGGLVQPGGSLRLSCAASGFTFSSYGMHWVRQAPGKGLEWVSGVSWNGSRTHYADSVKGRLTISRDNSKNTLYLQMNSLRAEDTAVYYCARGGDFDYWGQGTLVTVSS
VL: QSVLTQPPSASGTPGQRVTISCSGSSSNIGSNDVYWYQQLPGTAPKLLIYDNNKRPSGVPDRFSGSKSGTSASLAISGLRSEDEADYYCQSYDSSLSGSWVFGGGTKLTVLG
notes: Tested as human IgG1

Inhibition of phosphorylation of ERK1/2 in % at 7.5 µg/ml (ELISA, prolactin-treated T47D lysates) [3]: 100%
Inhibition of phosphorylation of PRLR in % at 7.5 µg/ml (ELISA, prolactin-treated T47D lysates) [3]: 100%
Inhibition of phosphorylation of STAT5 in % at 7.5 µg/ml (ELISA, prolactin-treated T47D lysates) [3]: 98%
B2: 002-H08 (Fab format) (Fab, V domains shown)
VH: B1 VH
VL: B1 VL

IC50, inhibition of prolactin-activated Ba/F cell proliferation (human PRLR) [1]: 0.15 µg/ml and 1 nM
IC50, prolactin-activated luciferase reporter gene activity, HEK293 cells with hPRLR [1]: 0.83 mg/ml and 5.5 nM
binding result [4]: no binding
EC50 [5]: 1.3 nM
Kd [2]: 0.7 nM
koff [2]: 0.00024 s⁻¹
B3: 006-H08 (antibody, V domains shown)
VH: not shown
VL: DIVLTQPPSASGTPGQRVTISCSGSNSNIGSNPVNWYQQLPGTAPKLLIYDNNKRPSGVPDRFSGSKSGTSASLAISGLRSEDEADYYCQSYDTGLSGWVFGGGTKLTVLG
notes: Tested as human IgG1; also called IgG1 006-H08

Inhibition of phosphorylation of ERK1/2 in % at 7.5 µg/ml (ELISA, prolactin-treated T47D lysates) [3]: 86%
Inhibition of phosphorylation of PRLR in % at 7.5 µg/ml (ELISA, prolactin-treated T47D lysates) [3]: 92%
Inhibition of phosphorylation of STAT5 in % at 7.5 µg/ml (ELISA, prolactin-treated T47D lysates) [3]: 72%
B4: 002-H06 (Fab format) (Fab, V domains shown)
VH: QVELLESGGGLVQPGGSLRLSCAASGFTFANYGLTWVRQAPGKGLEWVAVISFNGDKKYYADSVKGRFTISRDNSKNTLYLQMNSLRAEDTAVYYCASPLESPVAFDIWGQGTLVTVSS
VL: B3 VL with D1Q, I2S, N26Y, S31G, D51G, N53S, K54N, T94S, G95S, W99S

EC50 [4]: 1.2 nM
EC50 [5]: 1.8 nM
Kd [2]: 15.8 nM
koff [2]: 0.0048 s⁻¹
B5: 001-E06 (antibody, V domains shown)
VH: QVELLESGGGLVQPGGSLRLSCAASGFTFSSYWMSWVRQAPGKGLEWVSSVSDTGTDTHYADSVKGRFTISRDNSKNTLYLQMNSLRAEDTAVYYCAKTPLAYSSGWYYFDYWGQGTLVTVSS
VL: B3 VL with N26S, P33T, D51R, N53Y, K54Q, T94S, G95S, W99S
notes: Tested as human IgG1

IC50, inhibition of prolactin-activated Ba/F cell proliferation (human PRLR) [1]: 0.54 µg/ml and 3.6 nM
Kd [2]: 2.7 nM
koff [2]: 0.00054 s⁻¹
B6: 002-H06 (antibody, V domains shown)
VH: B4 VH
VL: B3 VL with D1Q, I2S, N26Y, S31G, D51G, N53S, K54N, T94S, G95S, W99S
notes: Tested as human IgG1

Inhibition of phosphorylation of ERK1/2 in % at 7.5 µg/ml (ELISA, prolactin-treated T47D lysates) [3]: 45%
Inhibition of phosphorylation of PRLR in % at 7.5 µg/ml (ELISA, prolactin-treated T47D lysates) [3]: 63%
Inhibition of phosphorylation of STAT5 in % at 7.5 µg/ml (ELISA, prolactin-treated T47D lysates) [3]: 36%
B7: 001-E06 (Fab format) (Fab, V domains shown)
VH: B5 VH
VL: B3 VL with N26S, P33T, D51R, N53Y, K54Q, T94S, G95S, W99S

Inhibition of phosphorylation of ERK1/2 in % at 7.5 µg/ml (ELISA, prolactin-treated T47D lysates) [3]: 100%
Inhibition of phosphorylation of PRLR in % at 7.5 µg/ml (ELISA, prolactin-treated T47D lysates) [3]: 100%
Inhibition of phosphorylation of STAT5 in % at 7.5 µg/ml (ELISA, prolactin-treated T47D lysates) [3]: 100%
B8: 006-H08 (scFv format) (scFv, V domains shown)
VH: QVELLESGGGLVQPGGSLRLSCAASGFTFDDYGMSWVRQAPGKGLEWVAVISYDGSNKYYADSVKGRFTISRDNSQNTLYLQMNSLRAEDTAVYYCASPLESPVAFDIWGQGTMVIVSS
VL: B3 VL

IC50, inhibition of prolactin-activated Ba/F cell proliferation (human PRLR) [1]: 1.29 µg/ml and 8.6 nM
EC50 [4]: 0.5 nM
EC50 [5]: 1.9 nM
Kd [2]: 12.2 nM
koff [2]: 0.0093 s⁻¹
B9: 005-C04 (antibody, V domains shown)
VH: EVQLLESGGGLVQPGGSLRLSCAASGFTFSSYWMHWVRQAPGKGLEWVSDISSASSYTNYADSVKGRFTISRDNSKNTLYLQMNSLRAEDTAVYYCARGLDARRMDYWGQGTLVTVSS
VL: QSVLTQPPSASGTPGQRVTISCTGSSSNIGAGYVVHWYQQLPGTAPKLLIYRNNQRPSGVPDRFSGSKSGTSASLAISGLRSEDEADYYCAAWDDSLNGWLFGGGTKLTVLG
notes: Tested as human IgG1; also called IgG1 005-C04; 005-004

binding result [4]: no binding
EC50 [5]: 0.3 nM
Kd [2]: 0.2 nM
koff [2]: 0.00017 s⁻¹
B10: XHA06.983 (antibody, V domains shown)
VH: DVQLVESGGGLVQPGGSRKLSCAASGFAFSSFGMQWVRQAPEKGLEWVAYISSGSSTIYYADTVKGRFTISRDNPKNTLFLQMTSLRSEDTAMYYCVRSGRDYWGQGTSVTVSS
VL: SIVMTQTPKFLLVSAGDRVTITCKASQGVSNDVAWFQQKPGQSPKLLIYSASTRYTGVPDRLTGSGYGTDFTFTINTVQAEDLAVYFCQQDYTSPTFGGGTKLEIKR
notes: Novartis antibody (WO2008/022295)

Inhibition of phosphorylation of ERK1/2 in % at 7.5 µg/ml (ELISA, prolactin-treated T47D lysates) [3]: 85%
Inhibition of phosphorylation of PRLR in % at 7.5 µg/ml (ELISA, prolactin-treated T47D lysates) [3]: 88%
Inhibition of phosphorylation of STAT5 in % at 7.5 µg/ml (ELISA, prolactin-treated T47D lysates) [3]: 73%
B11: 006-H07 (scFv format) (scFv, V domains shown)
VH: QVELLESGGGLVQPGGSLRLSCAASGFTFEDHGMSWVRQAPGKGLEWVSLISWDDGSNKYYADSVKGRFTISRDNSKNTLYLQMNSLRAEDTAVYYCATSLRATAFDTWGQGTLVTVSS
VL: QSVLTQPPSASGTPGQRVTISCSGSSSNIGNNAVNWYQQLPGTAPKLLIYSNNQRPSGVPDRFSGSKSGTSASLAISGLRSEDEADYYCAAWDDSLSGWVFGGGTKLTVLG

binding result [4]: no binding
EC50 [5]: 0.4 nM
Kd [2]: 2 nM
koff [2]: 0.0013 s⁻¹
B12: 006-H07 (antibody, V domains shown)
VH: B11 VH
VL: not shown
notes: Tested as human IgG1
